We go through 15 molecules from patent publication US20110118131A1 (published 2011).

One experiment has as its target T1, Ep-CAM (UniProt P16422 24-265, limits assumed).
T1 construct: Immobilised on the Biacore chip; construct not described
T1 sequence (looked up): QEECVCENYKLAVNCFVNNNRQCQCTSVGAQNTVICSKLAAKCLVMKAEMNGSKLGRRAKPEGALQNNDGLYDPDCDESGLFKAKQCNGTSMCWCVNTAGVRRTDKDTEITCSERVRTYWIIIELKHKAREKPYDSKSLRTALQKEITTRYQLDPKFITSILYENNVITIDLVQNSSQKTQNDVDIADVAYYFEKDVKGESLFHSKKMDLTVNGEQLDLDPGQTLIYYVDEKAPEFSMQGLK
Put plainly: Biacore, Fab periplasmic extract. A general note: Surface plasmon resonance follows binding to a sensor surface in real time, without labels.

A further experiment deals with T2, IL-1β (UniProt P01584 117-269).
T2 construct: Antigen of XPA23
Nature of the experiment: Biacore, Fab periplasmic extract; -1 = no binding by the table's footnote.

B1: ING-1 Fab, light chain R101V (Fab, V domains shown)
VH: QIQLVQSGPELKKPGETVKISCKASGYTFTKYGMNWVKQAPGKGLKWMGWINTYTEEPTYGDDFKGRFAFSLETSASTANLQINNLKSEDTATYFCARFGSAVDYWGQGTSVTVSS
VL: DIVMTQAAFSNPVTLGTSGSISCRSSKSLLHSNGITYLYWYLQKPGQSPQLLIYQMSNLASGVPDRFSSSGSGTDFTLRISRVEAEDVGVYYCAQNLELPVTFGGGTKLEMKR
notes: Fab in periplasmic extract
For the molecule B1, the binding result in the experiment with Ep-CAM is on record as “no binding”.

B2: ING-1 Fab, light chain Y54A (Fab, V domains shown)
VH: QIQLVQSGPELKKPGETVKISCKASGYTFTKYGMNWVKQAPGKGLKWMGWINTYTEEPTYGDDFKGRFAFSLETSASTANLQINNLKSEDTATYFCARFGSAVDYWGQGTSVTVSS
VL: DIVMTQAAFSNPVTLGTSGSISCRSSKSLLHSNGITYLYWYLQKPGQSPQLLIAQMSNLASGVPDRFSSSGSGTDFTLRISRVEAEDVGVYYCAQNLELPRTFGGGTKLEMKR
notes: Fab in periplasmic extract
B2: the “fold difference in affinity vs original ING-1” value (“fold difference in affinity” below) with Ep-CAM worked out at 0.08 fold.

B3: ING-1 Fab, light chain Y37A (Fab, V domains shown)
VH: QIQLVQSGPELKKPGETVKISCKASGYTFTKYGMNWVKQAPGKGLKWMGWINTYTEEPTYGDDFKGRFAFSLETSASTANLQINNLKSEDTATYFCARFGSAVDYWGQGTSVTVSS
VL: DIVMTQAAFSNPVTLGTSGSISCRSSKSLLHSNGITALYWYLQKPGQSPQLLIYQMSNLASGVPDRFSSSGSGTDFTLRISRVEAEDVGVYYCAQNLELPRTFGGGTKLEMKR
notes: Fab in periplasmic extract
Regarding B3, the “fold difference in affinity” value with Ep-CAM was 0.04 fold.

B4: ING-1 Fab, light chain Y54I (Fab, V domains shown)
VH: QIQLVQSGPELKKPGETVKISCKASGYTFTKYGMNWVKQAPGKGLKWMGWINTYTEEPTYGDDFKGRFAFSLETSASTANLQINNLKSEDTATYFCARFGSAVDYWGQGTSVTVSS
VL: DIVMTQAAFSNPVTLGTSGSISCRSSKSLLHSNGITYLYWYLQKPGQSPQLLIIQMSNLASGVPDRFSSSGSGTDFTLRISRVEAEDVGVYYCAQNLELPRTFGGGTKLEMKR
notes: Fab in periplasmic extract
On to B4, for which the binding result in the experiment with Ep-CAM is on record as “no binding”.

B5: ING-1 Fab, light chain Y37V (Fab, V domains shown)
VH: QIQLVQSGPELKKPGETVKISCKASGYTFTKYGMNWVKQAPGKGLKWMGWINTYTEEPTYGDDFKGRFAFSLETSASTANLQINNLKSEDTATYFCARFGSAVDYWGQGTSVTVSS
VL: DIVMTQAAFSNPVTLGTSGSISCRSSKSLLHSNGITVLYWYLQKPGQSPQLLIYQMSNLASGVPDRFSSSGSGTDFTLRISRVEAEDVGVYYCAQNLELPRTFGGGTKLEMKR
notes: Fab in periplasmic extract
On to B5, for which the binding result with Ep-CAM was “no binding”.

B6: ING-1 Fab, light chain S57G (Fab, V domains shown)
VH: QIQLVQSGPELKKPGETVKISCKASGYTFTKYGMNWVKQAPGKGLKWMGWINTYTEEPTYGDDFKGRFAFSLETSASTANLQINNLKSEDTATYFCARFGSAVDYWGQGTSVTVSS
VL: DIVMTQAAFSNPVTLGTSGSISCRSSKSLLHSNGITYLYWYLQKPGQSPQLLIYQMGNLASGVPDRFSSSGSGTDFTLRISRVEAEDVGVYYCAQNLELPRTFGGGTKLEMKR
notes: Fab in periplasmic extract
In the case of B6, the binding result with Ep-CAM is on record as “no binding”.

B7: ING-1 Fab, light chain Y37T (Fab, V domains shown)
VH: QIQLVQSGPELKKPGETVKISCKASGYTFTKYGMNWVKQAPGKGLKWMGWINTYTEEPTYGDDFKGRFAFSLETSASTANLQINNLKSEDTATYFCARFGSAVDYWGQGTSVTVSS
VL: DIVMTQAAFSNPVTLGTSGSISCRSSKSLLHSNGITTLYWYLQKPGQSPQLLIYQMSNLASGVPDRFSSSGSGTDFTLRISRVEAEDVGVYYCAQNLELPRTFGGGTKLEMKR
notes: Fab in periplasmic extract
As for B7, the binding result in the experiment with Ep-CAM is “no binding”.

B8: ING-1 Fab, light chain Y37I (Fab, V domains shown)
VH: QIQLVQSGPELKKPGETVKISCKASGYTFTKYGMNWVKQAPGKGLKWMGWINTYTEEPTYGDDFKGRFAFSLETSASTANLQINNLKSEDTATYFCARFGSAVDYWGQGTSVTVSS
VL: DIVMTQAAFSNPVTLGTSGSISCRSSKSLLHSNGITILYWYLQKPGQSPQLLIYQMSNLASGVPDRFSSSGSGTDFTLRISRVEAEDVGVYYCAQNLELPRTFGGGTKLEMKR
notes: Fab in periplasmic extract
On to B8, for which the “fold difference in affinity” value in the experiment with Ep-CAM was 0.9 fold.

B9: XPA23 heavy chain D106A (Fab, V domains shown)
VH: EVQLLESGGGLVQPGGSLRLSCAASGFTFSKYFMFWVRQAPGKGLEWVSVISPSGGMTRYADSVKGRFTISRDNSKNTLYLQMNSLRAEDTAVYYCARVGYGGNSAYWGQGTLVTVSS
VL: DIQMTQSPSSVSASVGDRLTIICRASQDINRWLAWYQQTPGNAPKLLIHSATSLQSGVPSRFSGSGSGTDFTLTINSLQPEDFATYYCQQADSFPLTFGGGTKVEIK
notes: Fab, periplasmic extract; also called C5A D106A
Take B9: the binding result with IL-1β is given as “no binding”.

B10: XPA23 heavy chain D106L (Fab, V domains shown)
VH: EVQLLESGGGLVQPGGSLRLSCAASGFTFSKYFMFWVRQAPGKGLEWVSVISPSGGMTRYADSVKGRFTISRDNSKNTLYLQMNSLRAEDTAVYYCARVGYGGNSLYWGQGTLVTVSS
VL: DIQMTQSPSSVSASVGDRLTIICRASQDINRWLAWYQQTPGNAPKLLIHSATSLQSGVPSRFSGSGSGTDFTLTINSLQPEDFATYYCQQADSFPLTFGGGTKVEIK
notes: Fab, periplasmic extract; also called C5A D106L
On to B10, for which, in the experiment with IL-1β, the binding result is given as “no binding”.

B11: XPA23 heavy chain G100L (Fab, V domains shown)
VH: EVQLLESGGGLVQPGGSLRLSCAASGFTFSKYFMFWVRQAPGKGLEWVSVISPSGGMTRYADSVKGRFTISRDNSKNTLYLQMNSLRAEDTAVYYCARVLYGGNSDYWGQGTLVTVSS
VL: DIQMTQSPSSVSASVGDRLTIICRASQDINRWLAWYQQTPGNAPKLLIHSATSLQSGVPSRFSGSGSGTDFTLTINSLQPEDFATYYCQQADSFPLTFGGGTKVEIK
notes: Fab, periplasmic extract; also called C5A G100L
With B11, the binding result with IL-1β is “no binding”.

B12: XPA23 heavy chain D106P (Fab, V domains shown)
VH: EVQLLESGGGLVQPGGSLRLSCAASGFTFSKYFMFWVRQAPGKGLEWVSVISPSGGMTRYADSVKGRFTISRDNSKNTLYLQMNSLRAEDTAVYYCARVGYGGNSPYWGQGTLVTVSS
VL: DIQMTQSPSSVSASVGDRLTIICRASQDINRWLAWYQQTPGNAPKLLIHSATSLQSGVPSRFSGSGSGTDFTLTINSLQPEDFATYYCQQADSFPLTFGGGTKVEIK
notes: Fab, periplasmic extract; also called C5A D106P
For the molecule B12, the binding result with IL-1β was “no binding”.

B13: XPA23 heavy chain D106T (Fab, V domains shown)
VH: EVQLLESGGGLVQPGGSLRLSCAASGFTFSKYFMFWVRQAPGKGLEWVSVISPSGGMTRYADSVKGRFTISRDNSKNTLYLQMNSLRAEDTAVYYCARVGYGGNSTYWGQGTLVTVSS
VL: DIQMTQSPSSVSASVGDRLTIICRASQDINRWLAWYQQTPGNAPKLLIHSATSLQSGVPSRFSGSGSGTDFTLTINSLQPEDFATYYCQQADSFPLTFGGGTKVEIK
notes: Fab, periplasmic extract; also called C5A D106T
On to B13, for which the binding result with IL-1β is reported as “no binding”.

B14: XPA23 heavy chain D106I (Fab, V domains shown)
VH: EVQLLESGGGLVQPGGSLRLSCAASGFTFSKYFMFWVRQAPGKGLEWVSVISPSGGMTRYADSVKGRFTISRDNSKNTLYLQMNSLRAEDTAVYYCARVGYGGNSIYWGQGTLVTVSS
VL: DIQMTQSPSSVSASVGDRLTIICRASQDINRWLAWYQQTPGNAPKLLIHSATSLQSGVPSRFSGSGSGTDFTLTINSLQPEDFATYYCQQADSFPLTFGGGTKVEIK
notes: Fab, periplasmic extract; also called C5A D106I
On to B14, for which, in the experiment with IL-1β, the binding result is “no binding”.

B15: XPA23 heavy chain D106V (Fab, V domains shown)
VH: EVQLLESGGGLVQPGGSLRLSCAASGFTFSKYFMFWVRQAPGKGLEWVSVISPSGGMTRYADSVKGRFTISRDNSKNTLYLQMNSLRAEDTAVYYCARVGYGGNSVYWGQGTLVTVSS
VL: DIQMTQSPSSVSASVGDRLTIICRASQDINRWLAWYQQTPGNAPKLLIHSATSLQSGVPSRFSGSGSGTDFTLTINSLQPEDFATYYCQQADSFPLTFGGGTKVEIK
notes: Fab, periplasmic extract; also called C5A D106V
Regarding B15, the binding result in the experiment with IL-1β is “no binding”.
